Article PMC7505815, “Estrogen receptor alpha (ERα)–mediated coregulator binding and gene expression discriminates the toxic ERα agonist diethylstilbestrol (DES) from the endogenous ERα agonist 17β-estradiol (E2)” (Cell Biology and Toxicology, 2020)

T1: Polyhistidine (His) tagged ERα ligand binding domain (amino acids 302–552) (UniProt P03372 302-552)
T1 construct: Detected on the array by a penta-His Alexa Fluor 488 antibody; Always tested with E2, DES or solvent (2% DMSO); also called ERα-LBD; source: partly purified from Escherichia coli (Qiagen)
T1 sequence (looked up): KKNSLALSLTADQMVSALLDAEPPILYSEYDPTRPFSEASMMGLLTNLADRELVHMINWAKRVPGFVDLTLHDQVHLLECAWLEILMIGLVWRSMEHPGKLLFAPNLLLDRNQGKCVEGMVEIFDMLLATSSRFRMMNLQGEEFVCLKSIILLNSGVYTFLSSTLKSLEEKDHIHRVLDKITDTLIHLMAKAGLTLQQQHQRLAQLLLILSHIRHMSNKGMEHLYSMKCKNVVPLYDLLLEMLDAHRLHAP

B1: TIF1A_373_395_C394S (peptide, UniProt O15164 373-395, looked up)
peptide: TALLYSKRLITYRLRHLLRARSD
notes: Immobilised on the PamChip; source: bought: PamChip peptide microarray, PamGene International BV
B2: NCOA1_1421_1441 (peptide, UniProt Q15788 1421-1441, looked up)
peptide: TSGPQTPQAQQKSLLQQLLTE
notes: as for B1
B3: NRIP1_173_195_C177S (peptide, UniProt P48552 173-195, looked up)
peptide: KDLRSYGVASSHLKTLLKKSKVK
notes: as for B1
B4: NCOR1_662_684_C662S (peptide, UniProt O75376 662-684, looked up)
peptide: SKNFYFNYKRRHNLDNLLQQHKQ
notes: as for B1
B5: TRIP4_149_171_C171S (peptide, UniProt Q15650 149-171, looked up)
peptide: FVNLYTREGQDRLAVLLPGRHPS
notes: as for B1
B6: ANDR_10_32 (peptide, UniProt P10275 10-32, looked up)
peptide: VYPRPPSKTYRGAFQNLFQSVRE
notes: Immobilised on the PamChip; also called Androgen receptor–related coregulator motif; source: bought: PamChip peptide microarray, PamGene International BV
B7: NRIP1_173_195 (peptide, UniProt P48552 173-195, looked up)
peptide: KDLRCYGVASSHLKTLLKKSKVK
notes: as for B1
B8: CBP_2055_2077 (peptide, UniProt Q92793 2055-2077, looked up)
peptide: SVQPPRSISPSALQDLLRTLKSP
notes: as for B1
B9: NCOA1_677_700 (peptide, UniProt Q15788 677-700, looked up)
peptide: PSSHSSLTERHKILHRLLQEGSPS
notes: as for B1
B10: NCOA2_628_651 (peptide, UniProt Q15596 628-651, looked up)
peptide: GQSRLHDSKGQTKLLQLLTTKSDQ
notes: as for B1

Experiments:
[1] = molecular target: T1, Polyhistidine (His) tagged ERα ligand …; assay: peptide or protein array; MARCoNI, PamChip peptide microarray: coregulator motif peptides immobilised; His-ERα-LBD 10 nM (partly purified) in solution with E2 (10^-12 to 10^-5 M), detected with penta-His Alexa Fluor 488 antibody 25 nM; 20 °C; 20 mM Tris-HCl pH 7.5, 500 mM NaCl, 0.2% BSA, 0.05% Tween 20, 2% DMSO; conditions: both partners purified
[2] = molecular target: T1, Polyhistidine (His) tagged ERα ligand …; assay: as above; conditions: both partners purified; remark: listed apart in the source

binding result [1]	binding result [2]	Binder
binds	–	B1
–	binds	B2
binds	–	B3
binds	–	B4
binds	–	B5
–	binds	B6
binds	–	B7
binds	–	B8
–	binds	B9
–	binds	B10
